Assay results from PMC6599011, “Transcription factor YcjW controls the emergency H2S production in E. coli”.
Substitutions are numbered along the chain they refer to.

T1: YcjW (Escherichia coli K-12 MG1655, UniProt P77615 1-332)
T1 sequence: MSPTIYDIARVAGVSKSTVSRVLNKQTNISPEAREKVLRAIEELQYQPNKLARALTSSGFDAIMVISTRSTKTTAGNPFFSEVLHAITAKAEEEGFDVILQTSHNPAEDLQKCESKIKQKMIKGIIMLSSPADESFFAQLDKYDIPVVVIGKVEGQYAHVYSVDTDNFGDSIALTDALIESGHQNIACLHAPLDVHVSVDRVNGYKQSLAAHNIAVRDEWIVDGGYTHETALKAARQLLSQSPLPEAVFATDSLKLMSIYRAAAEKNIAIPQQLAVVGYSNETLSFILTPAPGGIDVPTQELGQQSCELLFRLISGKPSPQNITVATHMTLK

T2: YcjW S258N (Escherichia coli K-12 MG1655, UniProt P77615 1-332, S258N)
T2 sequence: T1 sequence with S258N

B1: ycjM EMSA probe (LL58/LL59) (dsDNA)
DNA 1: GAGTAGTCTCTCGTTTCATGGGACCGCTACCACGGAAAGGCAACATGAAAC
DNA 2: GTTTCATGTTGCCTTTCCGTGGTAGCGGTCCCATGAAACGAGAGACTACTC
B2: narP EMSA probe (LL62/LL63) (dsDNA)
DNA 1: GGTAACATTCACGCGCCTGGTAGCGTTACCAACGCTACGCTCAAACATAATGATTC
DNA 2: GAATCATTATGTTTGAGCGTAGCGTTGGTAACGCTACCAGGCGCGTGAATGTTACC

Tests used:
Details in all cases: protein: recombinant; tags: His-SUMO (pET28-SUMO), cleaved with SUMO protease; chain copies: 2; label: 32P 5' end (T4 PNK); blunt
[1] = target: T1, YcjW; assay: EMSA; shift from about 1:0.5 DNA:protein, increasing with protein; EMSA with 32P-labelled dsDNA; binding buffer as in cited ref 14, not given; sugars preincubated with protein 20 min at room temperature; protein stored in 20 mM Tris-Cl pH 8.0, 50 mM NaCl, 1 mM DTT
[2] = target: T1, YcjW; assay: EMSA; shift from DNA:protein 1:0.5; no free probe at 1:2; EMSA with 32P-labelled dsDNA; binding buffer as in cited ref 14, not given; sugars preincubated with protein 20 min at room temperature; protein stored in 20 mM Tris-Cl pH 8.0, 50 mM NaCl, 1 mM DTT
[3] = target: T2, YcjW S258N; assay: as above

Row | Binder | binding result [1] | binding result [2] | binding result [3]
1 | B1 | binds | – | –
2 | B2 | – | binds | binds
